Assay [1] concerns the target soluble recombinant human αvβ6 (human) (UniProt P06756). Put plainly: ELISA on plate-bound soluble αvβ6 in Mn (1 mM MnCl2) [panel F]. (In general: An ELISA detects its analyte on a solid surface through an enzyme-linked reagent.)
Assay [2] has the same target. The experiment in a line: ELISA on plate-bound soluble αvβ6 in Ca/Mg [panel F].
The target is the same in assay [3]. Put plainly: ELISA on plate-bound soluble αvβ6 in EDTA (10 mM) [panel F].
Assay [4] shares this target. Put plainly: biotin-hsαvβ6 to coated LAP, blocking.
Assay [5] shares this target. Put plainly: ELISA, coated hsαvβ6.
Assay [6] addresses αvβ6 on β6-transfected FDC-P1 cells (murine) (UniProt P43406). Put plainly: adhesion of labelled β6-transfected FDC-P1 cells to plate-bound LAP, % binding; blocked ligand LAP.
Assay [7] has as its target soluble recombinant human αvβ6 (human) (UniProt P06756). The experiment in a line: ELISA on plate-bound soluble αvβ6 in Mn (1 mM MnCl2) [panel C].
Assay [8] has the same target. Put plainly: ELISA on plate-bound soluble αvβ6 in Ca/Mg [panel C].
In assay [9] the target is αvβ6 on β6-transfected FDC-P1 cells (murine) (UniProt P43406). Put plainly: adhesion of labelled β6-transfected FDC-P1 cells to plate-bound LAP, % binding; blocked ligand LAP. This is another data set of the same source.
In assay [10] the target is αvβ6 on β6-transfected SW480 cells (UniProt P06756). Put plainly: cell-based or functional assay.
Assay [11] deals with soluble recombinant human αvβ6 (human) (UniProt P06756). Put plainly: KinExA, solution affinity for soluble αvβ6, with CaCl2 and MgCl2. A general note: Kinetic exclusion samples the free partner from a solution-phase mixture.
Assay [12] has as its target αvβ6 on β6-transfected FDC-P1 cells (murine) (UniProt P43406). Put plainly: β6-FDC-P1 cells to coated LAP, blocking.
For assay [13] the target is unchanged. Put plainly: adhesion of labelled β6-transfected FDC-P1 cells to plate-bound LAP, % binding; blocked ligand LAP. The source holds these as a separate data set.
The target of assay [14] is soluble recombinant human αvβ6 (human) (UniProt P06756). Put plainly: KinExA, solution affinity for soluble αvβ6.
Assay [15] has the same target. Put plainly: ELISA on plate-bound soluble αvβ6 in Ca/Mg [panel B].
Assay [16] has the same target. The experiment in a line: ELISA on plate-bound soluble αvβ6 in Mn (1 mM MnCl2) [panel B].
For assay [17] the target is unchanged. Put plainly: ELISA on plate-bound soluble αvβ6 in EDTA (10 mM) [panel B].
Assay [18] concerns the target αvβ6 on β6-transfected SW480 cells (UniProt P06756). Put plainly: adhesion of SW480β6 cells to LAP, % binding; blocked ligand LAP [SW480β6 panel].
Assay [19] addresses αvβ6 of human tumor cells and tissues (Detroit 562 cells, SCC-14 cells, carcinoma sections) (human) (UniProt P06756). Put plainly: adhesion of Detroit562 cells to LAP, % binding; blocked ligand LAP [Detroit562 panel].

Chain of αvβ6 on β6-transfected SW480 cells (P06756 31-1048, chain 1 of 2): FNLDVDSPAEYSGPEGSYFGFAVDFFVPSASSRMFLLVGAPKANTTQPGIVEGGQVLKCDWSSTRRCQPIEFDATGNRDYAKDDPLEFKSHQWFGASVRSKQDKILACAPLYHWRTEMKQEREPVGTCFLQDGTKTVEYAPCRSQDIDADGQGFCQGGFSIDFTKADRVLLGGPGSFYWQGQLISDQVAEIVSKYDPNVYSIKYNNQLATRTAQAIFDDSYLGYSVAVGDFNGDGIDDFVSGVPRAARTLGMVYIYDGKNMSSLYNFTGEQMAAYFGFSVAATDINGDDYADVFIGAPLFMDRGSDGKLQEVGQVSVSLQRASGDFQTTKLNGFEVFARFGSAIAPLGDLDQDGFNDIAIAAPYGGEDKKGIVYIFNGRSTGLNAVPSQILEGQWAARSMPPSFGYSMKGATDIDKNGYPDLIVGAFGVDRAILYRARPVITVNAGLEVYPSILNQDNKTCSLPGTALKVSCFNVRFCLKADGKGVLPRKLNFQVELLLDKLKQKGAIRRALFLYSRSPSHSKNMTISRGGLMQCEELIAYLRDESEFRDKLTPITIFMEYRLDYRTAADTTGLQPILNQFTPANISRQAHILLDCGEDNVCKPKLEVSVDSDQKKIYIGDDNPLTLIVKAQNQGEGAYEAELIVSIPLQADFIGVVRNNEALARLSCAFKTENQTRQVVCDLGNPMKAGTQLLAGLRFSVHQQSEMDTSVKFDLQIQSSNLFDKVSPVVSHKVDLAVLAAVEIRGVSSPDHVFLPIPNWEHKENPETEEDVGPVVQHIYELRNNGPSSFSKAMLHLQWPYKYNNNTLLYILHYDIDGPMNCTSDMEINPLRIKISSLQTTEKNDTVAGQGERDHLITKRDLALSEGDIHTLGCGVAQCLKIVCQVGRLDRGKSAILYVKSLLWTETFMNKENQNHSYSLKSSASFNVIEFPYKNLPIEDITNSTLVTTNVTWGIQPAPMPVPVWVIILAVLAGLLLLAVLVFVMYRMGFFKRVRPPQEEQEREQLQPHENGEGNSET
Chain of αvβ6 on β6-transfected SW480 cells (P18564 22-788, chain 2 of 2, further chain): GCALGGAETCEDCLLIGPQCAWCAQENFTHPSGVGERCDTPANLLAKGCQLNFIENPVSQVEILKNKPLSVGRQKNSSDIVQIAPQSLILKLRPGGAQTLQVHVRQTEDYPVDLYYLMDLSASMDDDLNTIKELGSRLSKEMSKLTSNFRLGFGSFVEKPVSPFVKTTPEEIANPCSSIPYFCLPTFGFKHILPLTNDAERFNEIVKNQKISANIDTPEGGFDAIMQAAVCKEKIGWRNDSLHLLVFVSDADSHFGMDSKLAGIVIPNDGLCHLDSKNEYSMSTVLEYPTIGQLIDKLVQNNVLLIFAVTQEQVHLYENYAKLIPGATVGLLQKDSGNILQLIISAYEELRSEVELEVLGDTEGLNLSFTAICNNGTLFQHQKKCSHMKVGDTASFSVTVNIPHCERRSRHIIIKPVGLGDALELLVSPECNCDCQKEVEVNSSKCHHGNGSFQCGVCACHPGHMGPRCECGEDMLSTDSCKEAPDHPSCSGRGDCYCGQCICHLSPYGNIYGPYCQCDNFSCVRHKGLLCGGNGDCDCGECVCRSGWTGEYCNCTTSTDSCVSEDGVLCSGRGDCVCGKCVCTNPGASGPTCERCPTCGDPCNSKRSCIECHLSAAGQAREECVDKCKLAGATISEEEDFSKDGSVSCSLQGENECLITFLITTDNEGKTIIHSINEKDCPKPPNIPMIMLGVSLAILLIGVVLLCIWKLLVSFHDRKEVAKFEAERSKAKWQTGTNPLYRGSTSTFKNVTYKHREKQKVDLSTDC
Chain of soluble recombinant human αvβ6 (human) (P06756 31-992, chain 1 of 2): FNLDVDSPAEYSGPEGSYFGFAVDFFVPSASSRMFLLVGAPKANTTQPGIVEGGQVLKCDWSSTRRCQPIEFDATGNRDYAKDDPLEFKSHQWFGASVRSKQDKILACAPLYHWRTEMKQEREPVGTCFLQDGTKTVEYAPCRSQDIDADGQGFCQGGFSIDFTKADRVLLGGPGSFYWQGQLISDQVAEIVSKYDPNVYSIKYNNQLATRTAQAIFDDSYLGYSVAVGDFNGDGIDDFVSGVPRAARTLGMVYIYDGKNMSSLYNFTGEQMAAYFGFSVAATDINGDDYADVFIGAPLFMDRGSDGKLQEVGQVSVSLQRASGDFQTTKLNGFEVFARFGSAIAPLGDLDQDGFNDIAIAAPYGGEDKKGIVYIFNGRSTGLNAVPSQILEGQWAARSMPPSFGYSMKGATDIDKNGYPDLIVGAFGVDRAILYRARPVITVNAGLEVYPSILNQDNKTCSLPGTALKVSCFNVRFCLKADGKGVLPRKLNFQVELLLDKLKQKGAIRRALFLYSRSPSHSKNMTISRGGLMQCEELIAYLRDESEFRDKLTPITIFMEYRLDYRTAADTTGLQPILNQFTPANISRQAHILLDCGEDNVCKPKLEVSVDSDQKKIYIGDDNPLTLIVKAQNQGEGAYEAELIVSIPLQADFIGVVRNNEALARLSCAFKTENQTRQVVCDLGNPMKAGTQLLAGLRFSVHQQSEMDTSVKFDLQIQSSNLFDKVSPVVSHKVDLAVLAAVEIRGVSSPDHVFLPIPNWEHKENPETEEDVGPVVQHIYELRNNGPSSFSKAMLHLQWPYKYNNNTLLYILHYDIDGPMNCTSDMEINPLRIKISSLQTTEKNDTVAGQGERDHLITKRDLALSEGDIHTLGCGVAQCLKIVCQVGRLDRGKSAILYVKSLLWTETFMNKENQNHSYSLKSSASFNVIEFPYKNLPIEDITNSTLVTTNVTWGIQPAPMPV
Chain of soluble recombinant human αvβ6 (human) (P18564 22-709, chain 2 of 2, further chain): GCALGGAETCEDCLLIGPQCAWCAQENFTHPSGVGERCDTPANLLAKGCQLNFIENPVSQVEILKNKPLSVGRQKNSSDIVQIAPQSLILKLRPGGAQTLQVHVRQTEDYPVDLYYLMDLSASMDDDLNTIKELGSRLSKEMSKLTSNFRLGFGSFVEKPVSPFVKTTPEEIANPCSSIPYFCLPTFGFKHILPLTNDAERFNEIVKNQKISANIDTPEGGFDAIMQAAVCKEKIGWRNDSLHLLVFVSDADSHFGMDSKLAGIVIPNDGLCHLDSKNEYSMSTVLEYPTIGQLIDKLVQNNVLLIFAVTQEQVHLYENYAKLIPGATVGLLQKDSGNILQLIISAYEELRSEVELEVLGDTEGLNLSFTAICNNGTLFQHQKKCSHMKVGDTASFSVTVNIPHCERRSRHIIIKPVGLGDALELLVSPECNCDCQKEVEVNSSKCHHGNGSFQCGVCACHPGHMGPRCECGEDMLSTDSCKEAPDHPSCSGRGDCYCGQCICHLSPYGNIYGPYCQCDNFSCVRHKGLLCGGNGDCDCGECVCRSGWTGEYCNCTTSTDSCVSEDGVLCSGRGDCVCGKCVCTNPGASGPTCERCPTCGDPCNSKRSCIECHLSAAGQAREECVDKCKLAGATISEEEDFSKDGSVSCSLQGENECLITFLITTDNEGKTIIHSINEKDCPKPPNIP
Chain of αvβ6 of human tumor cells and tissues (Detroit 562 cells, SCC-14 cells, carcinoma sections) (human) (P06756 31-1048, chain 1 of 2): as the sequence (P06756 31-1048, chain 1 of 2) above
Chain of αvβ6 of human tumor cells and tissues (Detroit 562 cells, SCC-14 cells, carcinoma sections) (human) (P18564 22-788, chain 2 of 2, further chain): as the sequence (P18564 22-788, chain 2 of 2, further chain) above

With L230 (antibody), the EC50 (read off the curve) in assay [1], in [2] and in assay [3] was 0.01 µg/mL throughout. Also, the IC50 (as a rule, the midpoint of a concentration-inhibition curve) in assay [4] stood at 0.229 µg/mL. In addition, the EC50 (usually the concentration that produces a half-maximal response) in assay [5] amounted to 0.0271 µg/mL.
With 6.8G6 (antibody), the IC50 in assay [6] is 0.083 µg/mL; in [9], 0.101 µg/mL; in [12], 0.023 µg/mL; in assay [4], 0.169 µg/mL; in assay [13] it was 0.061 µg/mL. Also, the EC50 (read off the curve) (commonly the midpoint of the concentration-response curve) in assay [7] amounted to 0.03 µg/mL; in assay [8], 0.02 µg/mL. The PAI-1 luciferase IC50 in [10] is 0.312 µg/mL. In addition, the dissociation constant (Kd) – broadly, a measure of binding affinity in units of concentration – in assay [11] was determined as 0.0228 nM. Also, in assay [5], the EC50 is 0.0175 µg/mL.
On to 6.3G9 (antibody), for which the Kd in assay [14] came out at 0.0156 nM. For the same substance, the EC50 (read off the curve) in [15], in [16] and in [17] was 0.09 µg/mL in each case. This substance had a PAI-1 luciferase IC50 in assay [10] of 0.375 µg/mL. Besides, the values for the IC50 in [12] and in assay [4] were 0.017 µg/mL and 0.271 µg/mL, respectively. Moreover, the EC50 in [5] turned out to be 0.0767 µg/mL. The IC50 (read off the curve) in [18] came out at 0.03 µg/mL; in assay [19], 0.04 µg/mL.

The record behind these values is patent US20090186036A1.
